Measured values: US20020147170A1 (priority 2000, published 2002)
Residue numbers refer to the chain shown, from its start.

Assays:
[1] = biological target: Asn150Ala mutant rat mu opioid receptor (rat) (UniProt P33535); test: cell-based or functional assay
[2] = biological target: wild-type rat mu opioid receptor (rat); test: cell-based or functional assay
[3] = test system: mu opioid receptor; test: Luciferase activity on DAMGO titration (FIG. 15); format: cell-based, rat; conditions: DAMGO titrated onto cells
Experimental: Ligand (Damgo) was titrated onto the cells expressing either the mutant or the wild-type mu opioid receptor and the luciferase activity was measured to assess the sensitivity of the receptor to ligand stimulation.
It is important to note that the mu opioid receptor of the invention is also hypersensitive.

[4] = biological target: T1, rat mu opioid receptor (Rattus norvegicus, UniProt P33535, N150A); test: CRE-Luc luciferase reporter assay with forskolin stimulation; format: cell-based; conditions: CRE-Luc, 0.5 μM or 2 μM forskolin
T1 construct: expressed in transfected cells; host or cells: HEK293 (stated for the SRE-Luc/Gq5i assay); receptor gene in pcDNA1
Excerpt: The response element employed in this assay was the cAMP-response element (CRE), which is sensitive to Gαi mediated reductions in intracellular levels of cAMP. Signaling through the rat mu opioid receptor via Gαi inhibits adenylate cyclase, causing a decrease in intracellular cellular cAMP. Therefore, an increase in rat mu opioid receptor signaling induces a decrease in CRE mediated reporter activity.
Mutation induced Gαi-mediated decreases in intracellular cAMP were, prior to the present invention, more often measured by 1) stimulating cells with forskolin, which causes receptor-independent activation of adenylate cyclase and generates an intracellular pool of cAMP; 2) stimulating the cells with ligand; and 3) measuring the ligand-induced, receptor-dependent Gαi-mediated decrease in the intracellular cAMP pool (e.g., using a radioimmunoassay (e.g., New England Nuclear, Boston, Mass.)). […] Specifically, cells transfected with a CRE-Luc reporter construct (Stratagene, La Jolla, Calif.) and an expression vector encoding either a wild-type or a mutant rat mu opioid receptor were stimulated with 0.5 μM or 2 μM forskolin to increase the intracellular pool of cAMP. The basal (and ligand-induced) level of receptor activity was then measured using a standard luciferase assay (see FIG. 4). Coexpression of the receptor of interest with a luciferase reporter gene construct allows one to measure light emission as a readout for basal signaling.
This decrease in activity indicates an increase in the basal level activity of the mutant rat mu opioid receptor, because activation of the rat mu opioid receptor induces a decrease in CRE-mediated reporter activity (FIG. 4, compare 0.5 μM wild-type vs. 0.5 μM mutant and 2 μM wild-type vs. 2 μM mutant).

[5] = test system: rat mu opioid receptor; test: SRE-Luc/Gq5i luciferase reporter assay in HEK293 cells; format: cell-based; conditions: SRE + Gq5i; for Average Ligand Stimulated Activity (Light Emission) / Average Basal Activity (Light Emission): HEK293 cells; for Average Ligand Stimulated Activity (Light Emission): ligand DAMGO; for Average Basal Activity (Light Emission): no ligand
Excerpt: (§1) A positive assay for Gαi coupling (i.e., one that yields an increase in luciferase activity upon receptor activation, instead of a negative assay, one that yields a decrease in luciferase activity upon receptor activation), provides a detectable output signal and less interassay variation. It was hypothesized that Gαi coupling could be detected by altering the signaling pathway generated by Gαi coupled receptors. A chimeric G protein (Gqi5, Broach and Thorner, Nature 384 (Suppl.): 14-16 (1996)) that contains the entire Gαq protein having five C-terminal amino acids from Gαi attached to the C-terminus of Gαq has been generated. This chimeric G protein is recognized as Gαi by Gαi coupled receptors, but switches the receptor induced signaling from Gαi to Gαq. This allows Gαi receptor coupling to be detected using a positive assay by use of the Gαq responsive SMS-Luc or SRE-Luc construct (Stratagene, La Jolla, Calif.). SMS and SRE preferably respond to Gαq mediated inositol and calcium production. Moreover, detection can be carried out in the absence of forskolin pre-stimulation of cells.
(§2) Reagents & Solutions: The cell culture media used in the assays described below was Gibco BRL #12100-046. This media was made according to manufacturer's recipe, pH adjusted to 7.2, filtered (0.22 micron pore), and supplemented with 1% Pen/Strep (Gibco #15140-122; 100% penicillin G 10,000 units/ml, and streptomycin 10,000 μg/ml) and 10% fetal bovine serum. Cell culture media lacking 10% fetal bovine serum was also generated. DNA used in the transfection experiments was purified and quantitated by measuring the absorbance at OD260. A LucLite Luciferase Assay Kit (Packard) was used to quantitate luciferase activity. Transfections were carried out using LipofectAMINE Reagent (Gibco #18324-012).
(§3) The rat mu opioid receptor is a Gαi coupled receptor. Therefore we chose to use the Gq5i reporter system, described in detail above (Broach and Thorner, supra), which switches the signaling pathway from Gαi to Gαq for reliable positive readout. HEK293 cells were transfected with the reporter construct SRE-Luc, an expression vector containing nucleic acid encoding Gq5i (Broach and Thorner, supra), and an expression vector containing nucleic acid encoding either the wild-type or the Asn150Ala mutant rat mu opioid receptor. Basal and ligand-stimulated luciferase activity was measured. The ligand used in this assay was [D—Ala^2—MePhe^4, Gly-ol^5]enkephalin] (DAMGO). As a negative control, HEK293 cells were transfected with pcDNA1 (empty vector DNA), SRE-Luc, and the expression vector containing nucleic acid encoding Gq5i (Broach and Thorner, supra).
(§4) The luciferase assay was carried out as follows. On day 1, HEK293 cells in a T75 flask were washed with 15 ml serum-free media (or PBS), trypsinized with 5 ml 0.05% trypsin-EDTA (Gibco #25300-062), incubated at 37° C. for 3 minutes at which time 6-7 ml complete HEK293 media (Gibco #12100-046) and 10% Fetal Bovine Serum (Intergen #1050-90) were added. Thereafter, cells were collected in 50 ml centrifuge tubes, pelleted at 800-900 rpm (RCF˜275), and resuspend in 20 ml complete media. The cells were counted using a haemocytometer and diluted to 85,000 cells/ml in complete media. Using a repeat pipettor or cell plater, 100 μl of cells were added to each well of a Primaria 96-well plate (Falcon #353872). Cells were then incubated at 37° C., 5% CO2 until use at 48 hours.
(§5) On day 3, cells were transfected using LipofectAMINE™ according to the manufacturer's protocol (Gibco #18324-012, Rockville, Md.).
(§6) On day 4, cells were stimulated as follows. Ligands for the receptor, either DAMGO or a non-peptide ligand (e.g., naloxone or naltrexone), were diluted to a desired concentration in serum-free media containing 0.15 mM PMSF (or other protease inhibitor(s)). […]

[6] = biological target: T1, rat mu opioid receptor; test: as above; format: cell-based; conditions: see Example 1
Excerpt: as §1, §2, §3, §4, §5, §6

[7] = test system: α1 adrenergic receptor; conditions: cited from earlier work
[8] = test system: PTH receptor; conditions: COS-7 cells; cited from earlier work

[D-Ala^2-MePhe^4, Gly-ol^5]enkephalin (peptide)
Average Ligand Stimulated Activity (Light Emission) (light emission) [1]: 87000
Average Ligand Stimulated Activity (Light Emission) (light emission) [2]: 87500

B1: Asn150Ala rat mu opioid receptor: rat mu opioid receptor (SEQ ID NO: 1) with Asn to Ala point mutation at position 150, expressed from pcDNA1 (protein)
chain: MDSSTGPGNTSDCSDPLAQASCSPAPGSWLNLSHVDGNQSDPCGLNRTGLGGNDSLCPQTGSPSMVTAITIMALYSIVCVVGLFGNFLVMYVIVRYTKMKTATNIYIFNLALADALATSTLPFQSVNYLMGTWPFGTILCKIVISIDYYAMFTSIFTLCTMSVDRYIAVCHPVKALDFRTPRNAKIVNVCNWILSSAIGLPVMFMATTKYRQGSIDCTLTFSHPTWYWENLLKICVFIFAFIMPVLIITVCYGLMILRLKSVRMLSGSKEKDRNLRRITRMVLVVVAVFIVCWTPIHIYVIIKALITIPETTFQTVSWHFCIALGYTNSCLNPVLYAFLDENFKRCFREFCIPTSSTIEQQNSTRVRQNTREHPSTANTVDRTNHQLENLEAETAPLP
sensitivity of the receptor to ligand stimulation vs wild-type ([3]; listed as Asn150Ala rat mutant mu opioid receptor): hypersensitivity
sensitivity of the receptor to ligand stimulation vs wild-type ([3]; listed as mutant receptor): responsive to a lower concentration of ligand than the wild-type receptor
basal activity (forskolin-induced, no receptor stimulation) vs wild-type receptor [4]: reduction in basal activity
level of constitutive activity relative to ligand-stimulated activity of the wild-type receptor [4]: 50%
Average Ligand Stimulated Activity (Light Emission) [5]: 86,996
Average Basal Activity (Light Emission) [5]: *56,498
stimulation of basal level activity ([5]; mutant vs wild-type receptor, listed as Asn150Ala mutant mu opioid receptor): approximately 6.5 fold
basal activity relative to the maximal level of ligand-stimulated second messenger signaling [6]: exceeded 50%

B2: wild-type rat mu opioid receptor: wild-type rat mu opioid receptor expressed from an expression vector, comparator (protein, UniProt P33535 1-398, looked up)
Mu-type opioid receptor: B1 chain with A150N
Average Ligand Stimulated Activity (Light Emission) [5]: 87,461
Average Basal Activity (Light Emission) [5]: 8,436

B3: Ala293Glu mutant: α1 adrenergic receptor mutant at carboxyl end of IC3 (protein, UniProt P18841 1-515, looked up, variant A293E)
Alpha-1B adrenergic receptor: MNPDLDTGHNTSAPAQWGELKDANFTGPNQTSSNSTLPQLDVTRAISVGLVLGAFILFAIVGNILVILSVACNRHLRTPTNYFIVNLAIADLLLSFTVLPFSATLEVLGYWVLGRIFCDIWAAVDVLCCTASILSLCAISIDRYIGVRYSLQYPTLVTRRKAILALLSVWVLSTVISIGPLLGWKEPAPNDDKECGVTEEPFYALFSSLGSFYIPLAVILVMYCRVYIVAKRTTKNLEAGVMKEMSNSKELTLRIHSKNFHEDTLSSTKAKGHNPRSSIAVKLFKFSREKKAEKTLGIVVGMFILCWLPFFIALPLGSLFSTLKPPDAVFKVVFWLGYFNSCLNPIIYPCSSKEFKRAFMRILGCQCRSGRRRRRRRRLGACAYTYRPWTRGGSLERSQSRKDSLDDSGSCMSGSQRTLPSASPSPGYLGRGAQPPLELCAYPEWKSGALLSLPEPPGRRGRLDSGPLFTFKLLGEPESPGTEGDASNGGCDATTDLANGQPGFKSNMPLAPGHF
constitutive activity [7]: constitutively active

B4: Ala204Val mutant: α1 adrenergic receptor mutant in transmembrane domain V (protein, UniProt P18841 1-515, looked up, variant A204V)
Alpha-1B adrenergic receptor: B3 Alpha-1B adrenergic receptor with A204V, E293A
constitutive activity [7]: constitutively active

B5: His223Arg: polymorphic constitutively active PTH receptor mutant from Jansen's metaphyseal chondrodysplasia patients (protein, UniProt Q03431 27-593, looked up, variant H223R)
Parathyroid …: DADDVMTKEEQIFLLHRAQAQCEKRLKEVLQRPASIMESDKGWTSASTSGKPRKDKASGKLYPESEEDKEAPTGSRYRGRPCLPEWDHILCWPLGAPGEVVAVPCPDYIYDFNHKGHAYRRCDRNGSWELVPGHNRTWANYSECVKFLTNETREREVFDRLGMIYTVGYSVSLASLTVAVLILAYFRRLHCTRNYIRMHLFLSFMLRAVSIFVKDAVLYSGATLDEAERLTEEELRAIAQAPPPPATAAAGYAGCRVAVTFFLYFLATNYYWILVEGLYLHSLIFMAFFSEKKYLWGFTVFGWGLPAVFVAVWVSVRATLANTGCWDLSSGNKKWIIQVPILASIVLNFILFINIVRVLATKLRETNAGRCDTRQQYRKLLKSTLVLMPLFGVHYIVFMATPYTEVSGTLWQVQMHYEMLFNSFQGFFVAIIYCFCNGEVQAEIKKSWSRWTLALDFKRKARSGSSSYSYGPMVSHTSVTNVGPRVGLGLPLSPRLLPTATTNGHPQLPGHAKPGTPALETLETTPPAMAAPKDDGFLNGSCSGLDEEASGPERPPALLQEEWETVM
basal cyclic AMP accumulation vs cells expressing wild-type receptors [8]: four to six times higher

B6: Thr410Pro: polymorphic constitutively active PTH receptor missense mutant (protein, UniProt Q03431 27-593, looked up, variant T410P)
Parathyroid …: B5 Parathyroid … with R197H, T384P
basal cyclic AMP accumulation vs cells expressing wild-type receptors [8]: four to six times higher
